# Measurements from IntAct's records for PubMed 22314232.
# B1: Calnexin (Homo sapiens), P27824 (parent)
# chain: MEGKWLLCMLLVLGTAIVEAHDGHDDDVIDIEDDLDDVIEEVEDSKPDTTAPPSSPKVTYKAPVPTGEVYFADSFDRGTLSGWILSKAKKDDTDDEIAKYDGKWEVEEMKESKLPGDKGLVLMSRAKHHAISAKLNKPFLFDTKPLIVQYEVNFQNGIECGGAYVKLLSKTPELNLDQFHDKTPYTIMFGPDKCGEDYKLHFIFRHKNPKTGIYEEKHAKRPDADLKTYFTDKKTHLYTLILNPDNSFEILVDQSVVNSGNLLNDMTPPVNPSREIEDPEDRKPEDWDERPKIPDPEAVKPDDWDEDAPAKIPDEEATKPEGWLDDEPEYVPDPDAEKPEDWDEDMDGEWEAPQIANPRCESAPGCGVWQRPVIDNPNYKGKWKPPMIDNPSYQGIWKPRKIPNPDFFEDLEPFRMTPFSAIGLELWSMTSDIFFDNFIICADRRIVDDWANDGWGLKKAADGAAEPGVVGQMIEAAEERPWLWVVYILTVALPVFLVILFCCSGKKQTSGMEYKKTDAPQPDVKEEEEEKEEEKDKGDEEEEGEEKLEEKQKSDAEEDGGTVSQEEEDRKPKAEEDEILNRSPRNRKPRRE
# Variants of: B1
# Settings: with SEC61A1, P61619
# Chain of SEC61A1, P61619 (P61619 whole entry): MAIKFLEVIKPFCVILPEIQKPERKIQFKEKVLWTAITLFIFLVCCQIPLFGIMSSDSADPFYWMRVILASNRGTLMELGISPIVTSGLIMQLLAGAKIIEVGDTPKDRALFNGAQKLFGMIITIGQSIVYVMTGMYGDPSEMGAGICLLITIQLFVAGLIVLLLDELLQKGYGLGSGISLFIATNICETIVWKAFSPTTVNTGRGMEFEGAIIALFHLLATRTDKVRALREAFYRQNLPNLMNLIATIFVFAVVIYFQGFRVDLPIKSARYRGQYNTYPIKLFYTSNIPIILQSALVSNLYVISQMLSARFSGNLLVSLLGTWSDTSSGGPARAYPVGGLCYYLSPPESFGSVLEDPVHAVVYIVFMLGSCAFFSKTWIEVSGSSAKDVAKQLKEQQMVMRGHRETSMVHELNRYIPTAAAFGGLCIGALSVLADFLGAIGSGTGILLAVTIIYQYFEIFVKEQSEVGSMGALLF
row,Variant,effect of a mutation on the interaction
1,MEGKWLLCMLLVLGTAIVEAHDGHDDDVIDIEDDLDDVIEEVEDSKPDTTAPPSSPKVTYKAPVPTGEVYFADSFDRGTLSGWILSKAKKDDTDDEIAKYDGKWEVEEMKESKLPGDKGLVLMSRAKHHAISAKLNKPFLFDTKPLIVQYEVNFQNGIECGGAYVKLLSKTPELNLDQFHDKTPYTIMFGPDKCGEDYKLHFIFRHKNPKTGIYEEKHAKRPDADLKTYFTDKKTHLYTLILNPDNSFEILVDQSVVNSGNLLNDMTPPVNPSREIEDPEDRKPEDWDERPKIPDPEAVKPDDWDEDAPAKIPDEEATKPEGWLDDEPEYVPDPDAEKPEDWDEDMDGEWEAPQIANPRCESAPGCGVWQRPVIDNPNYKGKWKPPMIDNPSYQGIWKPRKIPNPDFFEDLEPFRMTPFSAIGLELWSMTSDIFFDNFIICADRRIVDDWANDGWGLKKAADGAAEPGVVGQMIEAAEERPWLWVVYILTVALLVFLVILFCCSGKKQTSGMEYKKTDAPQPDVKEEEEEKEEEKDKGDEEEEGEEKLEEKQKSDAEEDGGTVSQEEEDRKPKAEEDEILNRSPRNRKPRRE [P494L],disrupting interaction

# Variants of: B1
# Settings: with rl12_human RPL12, P30050
row,Variant,effect of a mutation on the interaction
1,MEGKWLLCMLLVLGTAIVEAHDGHDDDVIDIEDDLDDVIEEVEDSKPDTTAPPSSPKVTYKAPVPTGEVYFADSFDRGTLSGWILSKAKKDDTDDEIAKYDGKWEVEEMKESKLPGDKGLVLMSRAKHHAISAKLNKPFLFDTKPLIVQYEVNFQNGIECGGAYVKLLSKTPELNLDQFHDKTPYTIMFGPDKCGEDYKLHFIFRHKNPKTGIYEEKHAKRPDADLKTYFTDKKTHLYTLILNPDNSFEILVDQSVVNSGNLLNDMTPPVNPSREIEDPEDRKPEDWDERPKIPDPEAVKPDDWDEDAPAKIPDEEATKPEGWLDDEPEYVPDPDAEKPEDWDEDMDGEWEAPQIANPRCESAPGCGVWQRPVIDNPNYKGKWKPPMIDNPSYQGIWKPRKIPNPDFFEDLEPFRMTPFSAIGLELWSMTSDIFFDNFIICADRRIVDDWANDGWGLKKAADGAAEPGVVGQMIEAAEERPWLWVVYILTVALLVFLVILFCCSGKKQTSGMEYKKTDAPQPDVKEEEEEKEEEKDKGDEEEEGEEKLEEKQKSDAEEDGGTVSQEEEDRKPKAEEDEILNRSPRNRKPRRE [P494L],disrupting interaction
